Consider two molecules from patent US20130209454A1 (CALIFORNIA INSTITUTE OF TECHNOLOGY, published 2013).

Where only a bound is given, the exact number is not on record here.

What all share (test): cell-based or functional assay
Assay [1] deals with HIV-1 Env of strain 3817.v2.c59 (HIV-1).
For assay [2], the target named is HIV-1 Env of strain T251-18 (HIV-1).
Assay [3] addresses HIV-1 Env of strain 6480.v4.c25 (HIV-1).
Assay [4] deals with HIV-1 Env of strain ZM135M.PL10a (HIV-1).
In assay [5] the target is HIV-1 Env of strain 620345.c01 (HIV-1).
Assay [6] addresses HIV-1 Env of strain PVO.4 (HIV-1).
The target of assay [7] is HIV-1 Env of strain 62357_14_D3_4589 (HIV-1).
The target in assay [8] is HIV-1 Env of strain T257-31 (HIV-1).
Assay [9] has as its target HIV-1 Env of strain 231965.c01 (HIV-1).
For assay [10], the target named is HIV-1 Env of strain RHPA4259.7 (HIV-1).
Assay [11] deals with HIV-1 Env of strain Q842.d12 (HIV-1).
For assay [12], the target named is HIV-1 Env of strain Ce1176_A3 (HIV-1).
The target in assay [13] is HIV-1 Env of strain 0815.v3.c3 (HIV-1).
The target of assay [14] is HIV-1 Env of strain 6545.v4.cl (HIV-1).
The target of assay [15] is HIV-1 strain 3817.v2.c59 envelope (gp120) (HIV-1).
Assay [16] deals with HIV-1 strain Ce0393_C3 envelope (gp120) (HIV-1).
Assay [17] addresses HIV-1 strain T255-34 envelope (gp120) (HIV-1).
For assay [18], the target named is HIV-1 strain TRO.11 envelope (gp120) (HIV-1).
For assay [19], the target named is HIV-1 strain ZM233M.PB6 envelope (gp120) (HIV-1).
The target of assay [20] is HIV-1 strain 703357.C02 envelope (gp120) (HIV-1).
The target of assay [21] is HIV-1 strain 928-28 envelope (gp120) (HIV-1).
Assay [22] addresses HIV-1 strain ZM197M.PB7 envelope (gp120) (HIV-1).
The target of assay [23] is HIV-1 strain CNE30 envelope (gp120) (HIV-1).
In assay [24] the target is HIV-1 strain Q769.d22 envelope (gp120) (HIV-1).
In assay [25] the target is HIV-1 strain X1193_c1 envelope (gp120) (HIV-1).
In assay [26] the target is HIV-1 strain 3718.v3.c11 envelope (gp120) (HIV-1).
Assay [27] deals with HIV-1 strain 1056_10_TA11_1826 envelope (gp120) (HIV-1).
Assay [28] deals with HIV-1 strain ZM109F.PB4 envelope (gp120) (HIV-1).
The target in assay [29] is HIV-1 strain 89-F1_2_25 envelope (gp120) (HIV-1).
The target of assay [30] is HIV-1 strain Du156.12 envelope (gp120) (HIV-1).
Assay [31] has as its target HIV-1 strain CAAN5342.A2 envelope (gp120) (HIV-1).
The target in assay [32] is HIV-1 strain 6545.v4.c1 envelope (gp120) (HIV-1).
The target of assay [33] is HIV-1 strain Q259.d2.17 envelope (gp120) (HIV-1).
Assay [34] deals with HIV-1 strain 6480.v4.c25 envelope (gp120) (HIV-1).
Assay [35] has as its target HIV-1 strain AC10.0.29 envelope (gp120) (HIV-1).
Assay [36] deals with HIV-1 strain TRO.11 envelope (gp120) (HIV-1). This is another data set of the same source.
Assay [37] has as its target HIV-1 strain ZM214M.PL15 envelope (gp120) (HIV-1).
For assay [38], the target named is HIV-1 strain CAP45.2.00.G3 envelope (gp120) (HIV-1).
In assay [39] the target is HIV-1 strain SC422661.8 envelope (gp120) (HIV-1).
For assay [40], the target named is HIV-1 strain QH0692.42 envelope (gp120) (HIV-1).
For assay [41], the target named is HIV-1 strain T257-31 envelope (gp120) (HIV-1).
The target in assay [42] is HIV-1 strain AC10.0.29 envelope (gp120) (HIV-1). The source holds these as a separate data set.

B1: NIH45-46 IgG (antibody, V domains shown)
VH: QVRLSQSGGQMKKPGESMRLSCRASGYEFLNCPINWIRLAPGRRPEWMGWLKPRGGAVNYARKFQGRVTMTRDVYSDTAFLELRSLTSDDTAVYFCTRGKYCTARDYYNWDFEHWGRGAPVTVSS
VL: EIVLTQSPATLSLSPGETAIISCRTSQSGSLAWYQQRPGQAPRLVIYSGSTRAAGIPDRFSGSRWGADYNLSISNLESGDFGVYYCQQYEFFGQGTKVQVDI
For the molecule B1, the “neutralization IC50” value in assay [1] was more than 50 µg/mL; in assay [2] it was 1.35 µg/mL; in [3], 0.032 µg/mL; in assay [4] it was 0.59 µg/mL; in assay [5], more than 50 µg/mL; in assay [6], 0.12 µg/mL. Moreover, the “neutralization IC50” value in [7] was 0.06 µg/mL; in assay [8], 0.49 µg/mL; in [9], 0.051 µg/mL; in assay [10], 0.017 µg/mL; in assay [11] it was 0.031 µg/mL; in assay [12], 0.93 µg/mL. Moreover, the “neutralization IC50” value in assay [13] is 0.014 µg/mL; in assay [14], more than 50 µg/mL.

B2: NIH45-46 IgG (antibody, V domains shown)
VH: QVRLSQSGGQMKKPGESMRLSCRASGYEFLNCPINWIRLAPGRRPEWMGWLKPRGGAVNYARKFQGRVTMTRDVYSDTAFLELRSLTSDDTAVYFCTRGKYCTARDYYNWDFEHWGRGAPVTVSS
VL: EIVLTQSPATLSLSPGETAIISCRTSQSGSLAWYQQRPGQAPRLVIYSGSTRAAGIPDRFSGSRWGADYNLSISNLESGDFGVYYCQQYEFFGQGTKVQVDI
With B2, the “neutralization IC80” value in [15] is more than 50 µg/mL; in assay [16] it was 0.93 µg/mL; in assay [17] it was 3.44 µg/mL; in assay [18] it was 7.49 µg/mL; in assay [19], 14.2 µg/mL; in [20], more than 50 µg/mL. For the same molecule, the “neutralization IC80” value in [21] is 0.64 µg/mL; in assay [22], 0.55 µg/mL; in [23] it was 1.07 µg/mL; in assay [24] it was 0.033 µg/mL; in assay [25], 0.064 µg/mL; in assay [26], more than 50 µg/mL. Further, the “neutralization IC80” value in assay [27] is 0.447 µg/mL; in assay [28], 0.437 µg/mL; in assay [29] it was more than 50 µg/mL; in assay [30], 0.054 µg/mL; in assay [31] it was 0.4 µg/mL; in assay [32], more than 50 µg/mL. Moreover, the entries for the “neutralization IC80” value in assay [33], in assay [34] and in [35] were 0.154 µg/mL, 0.1 µg/mL and 1.93 µg/mL, respectively. In addition, the “neutralization IC50” value was 1.9 µg/mL in [36]; 0.5 µg/mL in [37]; more than 50 µg/mL in [38]; 0.05 µg/mL in assay [39]; 0.7 µg/mL in assay [40]; 0.5 µg/mL in assay [41]. Moreover, the “neutralization IC50” value in assay [42] amounted to 0.9 µg/mL.
